Experimental findings from EP4745156A1 are described below.

Positions count from the first letter of the chain named.

Test [1] addresses His-tagged canine IL-31 (interleukin 31) recombinant protein (canine). Briefly: BLI (Gator), biotinylated antibody on streptavidin probe, canine IL-31 as analyte.
For test [2] the target is unchanged. Nature of the test: cell-based or functional assay.

B1: B2-H1K1-canIgGB (antibody, V domains shown)
VH: EVQLVESGGDLVKPGGSLRLSCVASGFTFSDAWMDWVRQAPGKGLQWLAEIRSRAESHATYYAESVKGRFTISRDDAKNTVYLQMNSLRAEDTAVYYCTPASTMITTGWFAYWGQGTLVTVSS
VL: EIVMTQTPLSLAVTPGELATISCRASQNISVYLHWYLQKPGQTPRVLIKYVSQSISGVSDRFSGSGSGSDFTLKISRVEAEDVGVYYCQNGHSFPYTFGQGTKLEIKR
Take B1: in test [1], the Kd amounted to 17.2 nM, the koff was 0.0013 s⁻¹ and the kon amounted to 75600 M⁻¹ s⁻¹. The pSTAT IC50 (µg/mL) in test [2] came to 9.4 µg/mL.

B2: B2-H3K2-canIgGB (antibody, V domains shown)
VH: B1 VH with L48V
VL: DIVMTQTPLSLSVSPGETASISCRASQNISVYLHWYRQKPGQSPQVLIKYVSQSISGVPDRFSGSGSGSDFTLRISRVEADDTGVYYCQNGHSFPYTFGQGTKLEIKR
On to B2, for which, in test [1], the Kd was 1.76 nM, the koff was 0.000188 s⁻¹ and the on-rate constant (kon) was found to be 107000 M⁻¹ s⁻¹. In addition, the pSTAT IC50 (µg/mL) in test [2] worked out at 7.2 µg/mL.

B3: B2-H2K2-canIgGB (antibody, V domains shown)
VH: B1 VH with Q46E, L48V, T80M
VL: B2 VL
As for B3, in test [1], the dissociation constant Kd turned out to be 9.17 nM, the koff was 0.000882 s⁻¹ and the kon is 96200 M⁻¹ s⁻¹. Moreover, in test [2], the pSTAT IC50 (µg/mL) came to 7.8 µg/mL.

B4: B2-H3K1-canIgGB (antibody, V domains shown)
VH: B1 VH with L48V
VL: B1 VL
In the case of B4, in test [1], the Kd stood at 10.2 nM, the koff amounted to 0.00114 s⁻¹ and the kon was 112000 M⁻¹ s⁻¹. Besides, in test [2], the pSTAT IC50 (µg/mL) was 8.5 µg/mL.

B5: B2-H2K3-canIgGB (antibody, V domains shown)
VH: B1 VH with Q46E, L48V, T80M
VL: B1 VL with A12S, T14S, L37Q, T43A, R45K, S59P, D60S, K74T, R77S
With B5, in test [1], the Kd was found to be 1.53 nM, the off-rate (koff) was determined as 0.000143 s⁻¹ and the on-rate (kon) came out at 93500 M⁻¹ s⁻¹. Further, the pSTAT IC50 (µg/mL) in test [2] was 7.1 µg/mL.

B6: B2-H1K2-canIgGB (antibody, V domains shown)
VH: B1 VH
VL: B2 VL
For B6, in test [1], the Kd worked out at 13.8 nM, the koff amounted to 0.00115 s⁻¹ and the kon was 82800 M⁻¹ s⁻¹. For the same molecule, the pSTAT IC50 (µg/mL) in test [2] is 9.2 µg/mL.

B7: B2-H2K1-canIgGB (antibody, V domains shown)
VH: B1 VH with Q46E, L48V, T80M
VL: B1 VL
For B7, in test [1], the Kd turned out to be 10 nM, the koff worked out at 0.000942 s⁻¹ and the kon came out at 93800 M⁻¹ s⁻¹. The pSTAT IC50 (µg/mL) in test [2] worked out at 8.3 µg/mL.

B8: B2-H1K3-canIgGB (antibody, V domains shown)
VH: B1 VH
VL: B1 VL with A12S, T14S, L37Q, T43A, R45K, S59P, D60S, K74T, R77S
With B8, in test [1], the Kd stood at 16.7 nM, the koff turned out to be 0.0015 s⁻¹ and the kon came out at 89800 M⁻¹ s⁻¹. Further, the pSTAT IC50 (µg/mL) in test [2] amounted to 9.3 µg/mL.

B9: 6465-H3K3-canIgGB (antibody, V domains shown)
VH: EVQLVESGGDLVKPGGSLRLSCVASGYSFTNYYLYWVRQAPGKGLEWVAELNPRNGGTNLNAKFKTRFTISRDNAKNMAYLQMNSLRAEDTAVYYCTRGGTTVVVRDVMDFWGQGTLVTVSS
VL: DIVMTQTPLSLSVSPGEPASISCRASESVDSYGNSFMHWYRQKPGQSPQLLIYRASNLESGVPDRFSGSGSGTDFTLRISRVEADDAGVYYCQQSNEDPYTFGQGTKLEIKR
As for B9, in test [1], the Kd turned out to be 2.02 nM, the koff stood at 0.00164 s⁻¹ and the kon was determined as 812000 M⁻¹ s⁻¹. Moreover, in test [2], the pSTAT IC50 (µg/mL) turned out to be 7.2 µg/mL.

B10: 6465-H1K1-canIgGB (antibody, V domains shown)
VH: B9 VH with A49G, R72V, N74K
VL: EIVLTQTPLSLAVTPGELATISCRASESVDSYGNSFMHWYLQKPGQTPRLLIYRASNLESGVSDRFSGSGSRTDFTLKISRVEAEDVGVYYCQQSNEDPYTFGQGTKLEIKR
For B10, in test [1], the Kd came out at 3.21 nM, the off-rate constant (koff) was 0.000979 s⁻¹ and the association rate constant (kon) turned out to be 305000 M⁻¹ s⁻¹. Besides, the pSTAT IC50 (µg/mL) in test [2] was found to be 7.5 µg/mL.

B11: B2-mHvKv-canIgGB (antibody, V domains shown)
VH: EVKLVESGGGLVQPGGSMKLSCAASGFTFSDAWMDWVRQSPERGLEWVAEIRSRAESHATYYAESVKGRFTISRDDSKGSVYLQMNSLGTEDTGIYYCTPASTMITTGWFAYWGQGTMVTVSS
VL: NIVMTQSPAILSVTPGDRVSLSCRASQNISVYLHWYQQKSHDSPRVLIKYVSQSISGIPSRFSGSGSGSDFTLRINSVEPEDVGVYYCQNGHSFPYTFGGGTKLEIKR
Consider B11, for which, in test [1], the Kd was 3.04 nM, the koff was 0.000243 s⁻¹ and the kon came out at 79900 M⁻¹ s⁻¹. Moreover, the pSTAT IC50 (µg/mL) in test [2] was 6.8 µg/mL.

B12: 6465-mHvKv-canIgGB (antibody, V domains shown)
VH: EVQLQQSGAELVRPGASVRLSCKASGYSFTNYYLYWVKQRPGQGLEWIGELNPRNGGTNLNAKFKTKATLTVDKSSNTAYMRLSSLTSEDSAVYYCTRGGTTVVVRDVMDFWGQGTSVTVSS
VL: DIELTQSPASLAVSLGQRATISCRASESVDSYGNSFMHWYQQKPGQPPKLLIYRASNLESGIPARFSGSGSRTDFTLTINPVEADDVATYYCQQSNEDPYTFGGGTKLEIKR
As for B12, in test [1], the Kd was 2.09 nM, the koff was determined as 0.00106 s⁻¹ and the kon amounted to 507000 M⁻¹ s⁻¹. Besides, in test [2], the pSTAT IC50 (µg/mL) came to 7.1 µg/mL.

B13: 7475-H1K1-canIgGB (antibody, V domains shown)
VH: EVQLVESGGDLVKPGGSLRLSCVASGFTFSSYAMSWVRQAPGKGLQWVAYISNGGDYIFYADTVKGRFTISRDNARNTLYLQMNSLRSEDTAVYYCTRRGHYNTSSYWYFDVWGQGTLVTVSS
VL: EIVMTQSPASLSLSQEEKVTITCKASENVGTYVSWYQQKPGQAPKLLIYGASNRYTGVPSRFSGSGSGTDFTFTISSLEPEDVAVYYCGQSYSYPPTFGAGTKVELKR
Turning to B13, in test [1], the Kd was found to be 6.73 nM, the koff is 0.00156 s⁻¹ and the kon was found to be 231000 M⁻¹ s⁻¹. For the same molecule, the pSTAT IC50 (µg/mL) in test [2] turned out to be 8.4 µg/mL.

B14: 7475-H3K2-canIgGB (antibody, V domains shown)
VH: B13 VH with Y50R, R76K, S88A, V93M
VL: B13 VL with G68A, F73L, L78V
Take B14: in test [1], the Kd was 5.4 nM, the dissociation rate constant (koff) amounted to 0.000539 s⁻¹ and the on-rate (kon) stood at 100000 M⁻¹ s⁻¹. The pSTAT IC50 (µg/mL) in test [2] was 7.8 µg/mL.

B15: 7475-H1K2-canIgGB (antibody, V domains shown)
VH: B13 VH
VL: B13 VL with G68A, F73L, L78V
As for B15, in test [1], the Kd was 6.37 nM, the off-rate (koff) was determined as 0.000614 s⁻¹ and the kon worked out at 96500 M⁻¹ s⁻¹. The pSTAT IC50 (µg/mL) in test [2] amounted to 8.1 µg/mL.

B16: 7475-H3K1-canIgGB (antibody, V domains shown)
VH: B13 VH with Y50R, R76K, S88A, V93M
VL: B13 VL
With B16, in test [1], the Kd amounted to 4.84 nM, the koff came out at 0.000542 s⁻¹ and the kon came to 112000 M⁻¹ s⁻¹. The pSTAT IC50 (µg/mL) in test [2] was 7.5 µg/mL.

B17: 7475-H3K3-canIgGB (antibody, V domains shown)
VH: B13 VH with Y50R, R76K, S88A, V93M
VL: B13 VL with T72S
As to B17, in test [1], the Kd came out at 3.34 nM, the koff stood at 0.00204 s⁻¹ and the kon stood at 611000 M⁻¹ s⁻¹. The pSTAT IC50 (µg/mL) in test [2] is 6.9 µg/mL.

B18: 7475-H2K2-canIgGB (antibody, V domains shown)
VH: B13 VH with V37I, R76K, S88A
VL: B13 VL with G68A, F73L, L78V
For B18, in test [1], the Kd amounted to 3.61 nM, the koff was found to be 0.000481 s⁻¹ and the kon amounted to 133000 M⁻¹ s⁻¹. Further, the pSTAT IC50 (µg/mL) in test [2] turned out to be 7.1 µg/mL.

B19: 7475-H1K3-canIgGB (antibody, V domains shown)
VH: B13 VH
VL: B13 VL with T72S
As for B19, in test [1], the Kd worked out at 6.51 nM, the koff was found to be 0.00192 s⁻¹ and the kon is 295000 M⁻¹ s⁻¹. For the same molecule, in test [2], the pSTAT IC50 (µg/mL) amounted to 8.2 µg/mL.

B20: 7475-H2K1-canIgGB (antibody, V domains shown)
VH: B13 VH with V37I, R76K, S88A
VL: B13 VL
On to B20, for which, in test [1], the Kd is 5.43 nM, the koff was 0.00055 s⁻¹ and the kon turned out to be 101000 M⁻¹ s⁻¹. Besides, the pSTAT IC50 (µg/mL) in test [2] came to 7.9 µg/mL.

B21: 7475-H2K3-canIgGB (antibody, V domains shown)
VH: B13 VH with V37I, R76K, S88A
VL: B13 VL with T72S
With B21, in test [1], the Kd amounted to 4.67 nM, the koff was 0.000759 s⁻¹ and the association rate constant (kon) worked out at 162000 M⁻¹ s⁻¹. In addition, in test [2], the pSTAT IC50 (µg/mL) turned out to be 7.2 µg/mL.

B22: 7475-mHvKv-canIgGB (antibody, V domains shown)
VH: EVKLVESGEGLVKPGGSLKLSCAASGFTFSSYAMSWVRQTPEKRLEWVAYISNGGDYIFYADTVKGRFTISRDNARNTLYLQMSSLKSEDTAMYYCTRRGHYNTSSYWYFDVWGTGTTVTVSS
VL: DIVMTQSPKSMSMSVGERVTLSCKASENVGTYVSWYQQKPEQSPKLLIYGASNRYTGVPDRFTGSGSATDFTLTISSVQAEDLADYHCGQSYSYPPTFGAGTKLELKR
Consider B22, for which, in test [1], the Kd was 1.01 nM, the koff stood at 0.000251 s⁻¹ and the kon is 250000 M⁻¹ s⁻¹. Further, the pSTAT IC50 (µg/mL) in test [2] was 6.7 µg/mL.
